Sequences and labels used below:
B1: VTI1B (parent)
chain: ANETLAEMEEELRYAPLSFRNPMM
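Further: lentivirally expressed fusions sorted by FACS into six bins by GFP to DsRed ratio, PSI derived from sequencing read proportions per bin multiplied by bin number.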

Variants of B1 are the subject of the series. Briefly: protein stability index of a GFP-peptide fusion (GPS, HEK-293T) (PSI 1-6); higher = more stable. The settings on record: c terminus: a fixed tail appended.
Take ANETKAEMEEELRYAPLSFRNPMM: the protein stability index was 2.16. Next, ANETSAEMEEELRYAPLSFRNPMM: 2.96; ANETRAEMEEELRYAPLSFRNPMM: 2.14; ANETAAEMEEELRYAPLSFRNPMM: 2.7. Next, ANETDAEMEEELRYAPLSFRNPMM: 3.62; ANETPAEMEEELRYAPLSFRNPMM: 2.73; ANETFAEMEEELRYAPLSFRNPMM: 2.96. Take ANETYAEMEEELRYAPLSFRNPMM: the protein stability index was determined as 2.4.

With ANETNAEMEEELRYAPLSFRNPMM, the protein stability index amounted to 3.05. Next, ANETEAEMEEELRYAPLSFRNPMM: 3.32; ANETVAEMEEELRYAPLSFRNPMM: 2.78; ANETCAEMEEELRYAPLSFRNPMM: 2.69. With ANETGAEMEEELRYAPLSFRNPMM, the protein stability index is 2.58. With ARETLAEMEEELRYAPLSFRNPMM, the protein stability index was determined as 1.26. Next, ACETLAEMEEELRYAPLSFRNPMM: 2.13; ATETLAEMEEELRYAPLSFRNPMM: 2.19.

Turning to APETLAEMEEELRYAPLSFRNPMM, the protein stability index was found to be 2.52. AHETLAEMEEELRYAPLSFRNPMM: the protein stability index was found to be 2.9. The result for AGETLAEMEEELRYAPLSFRNPMM reads 2.01.

Take AWETLAEMEEELRYAPLSFRNPMM: the protein stability index was found to be 1.06. Next, AQETLAEMEEELRYAPLSFRNPMM: 2.27. On to AIETLAEMEEELRYAPLSFRNPMM, for which the protein stability index was 2.53.

On to AYETLAEMEEELRYAPLSFRNPMM, for which the protein stability index was 2.05.

Turning to ALETLAEMEEELRYAPLSFRNPMM, the protein stability index was 2.58. With ASETLAEMEEELRYAPLSFRNPMM, the protein stability index worked out at 1.94.

With ANETLAEMEQELRYAPLSFRNPMM, the protein stability index came out at 3.3.

Regarding ANETLAEMEHELRYAPLSFRNPMM, the protein stability index was 3.06. The result for ANETLAEMEMELRYAPLSFRNPMM reads 1.87. For ANETLAEMEYELRYAPLSFRNPMM, the protein stability index was determined as 1.69. The result for ANETLAEMESELRYAPLSFRNPMM reads 2.56; that for ANETLAEMEAELRYAPLSFRNPMM, 2.04; that for ANETLAEMEWELRYAPLSFRNPMM, 1.96. The result for ANETLAEMELELRYAPLSFRNPMM reads 2.05; that for ANETLAEMEKELRYAPLSFRNPMM, 2.73.

With ANETLAEMETELRYAPLSFRNPMM, the protein stability index turned out to be 3.02.

Turning to ANETLAEMERELRYAPLSFRNPMM, the protein stability index was 1.17. Regarding ANETLAEMECELRYAPLSFRNPMM, the protein stability index turned out to be 2.16. Regarding ANETLAEMEFELRYAPLSFRNPMM, the protein stability index worked out at 2.75. Next, ANETLAEMEVELRYAPLSFRNPMM: 1.82.

For the variant ANETLAEMEPELRYAPLSFRNPMM, the protein stability index came to 2.73.

Take ANETLAEMENELRYAPLSFRNPMM: the protein stability index amounted to 2.55.

In the case of ANETLAEMEDELRYAPLSFRNPMM, the protein stability index stood at 1.62. Next, ANETLAEMEIELRYAPLSFRNPMM: 2.05; ANETLAEMEGELRYAPLSFRNPMM: 1.49; ANETLAEFEEELRYAPLSFRNPMM: 2.51. Turning to ANETLAESEEELRYAPLSFRNPMM, the protein stability index worked out at 3.14.

As for ANETLAEPEEELRYAPLSFRNPMM, the protein stability index stood at 3.11. The result for ANETLAELEEELRYAPLSFRNPMM reads 2.3; that for ANETLAEKEEELRYAPLSFRNPMM, 2.4; that for ANETLAEGEEELRYAPLSFRNPMM, 3.19. The result for ANETLAEREEELRYAPLSFRNPMM reads 2.46; that for ANETLAEDEEELRYAPLSFRNPMM, 3.37; that for ANETLAEVEEELRYAPLSFRNPMM, 2.16.

Consider ANETLAECEEELRYAPLSFRNPMM, for which the protein stability index turned out to be 2.94.

As for ANETLAEHEEELRYAPLSFRNPMM, the protein stability index was 3.39. The result for ANETLAEWEEELRYAPLSFRNPMM reads 1.51. Next, ANETLAEQEEELRYAPLSFRNPMM: 2.62. Regarding ANETLAEYEEELRYAPLSFRNPMM, the protein stability index worked out at 2.73.

ANETLAENEEELRYAPLSFRNPMM: the protein stability index turned out to be 2.72.

As to ANETLAEAEEELRYAPLSFRNPMM, the protein stability index amounted to 3.28.

Consider ANETLAEIEEELRYAPLSFRNPMM, for which the protein stability index was determined as 2.8. The result for ANETLAETEEELRYAPLSFRNPMM reads 3.11; that for ANETLAEEEEELRYAPLSFRNPMM, 3.1; that for ANETLAEMEEEGRYAPLSFRNPMM, 2.62. Next, ANETLAEMEEECRYAPLSFRNPMM: 4.37. The result for ANETLAEMEEEPRYAPLSFRNPMM reads 2.95; that for ANETLAEMEEEKRYAPLSFRNPMM, 3.27; that for ANETLAEMEEENRYAPLSFRNPMM, 4.82.

On to ANETLAEMEEEHRYAPLSFRNPMM, for which the protein stability index was found to be 3.79. On to ANETLAEMEEEARYAPLSFRNPMM, for which the protein stability index was 3.14. With ANETLAEMEEEIRYAPLSFRNPMM, the protein stability index was 2.99. Next, ANETLAEMEEEDRYAPLSFRNPMM: 4.49; ANETLAEMEEEERYAPLSFRNPMM: 3.65. Next, ANETLAEMEEEFRYAPLSFRNPMM: 3.14; ANETLAEMEEEMRYAPLSFRNPMM: 2.28; ANEPLAEMEEELRYAPLSFRNPMM: 2.41.

With ANEWLAEMEEELRYAPLSFRNPMM, the protein stability index was determined as 1.99. The result for ANECLAEMEEELRYAPLSFRNPMM reads 1.69; that for ANESLAEMEEELRYAPLSFRNPMM, 2.58. The result for ANEFLAEMEEELRYAPLSFRNPMM reads 2.12; that for ANEKLAEMEEELRYAPLSFRNPMM, 2.72; that for ANENLAEMEEELRYAPLSFRNPMM, 2.79. ANEYLAEMEEELRYAPLSFRNPMM: the protein stability index was determined as 1.23. As for ANELLAEMEEELRYAPLSFRNPMM, the protein stability index is 2.47.

As for ANEHLAEMEEELRYAPLSFRNPMM, the protein stability index came out at 1.83. Next, ANEELAEMEEELRYAPLSFRNPMM: 3.26; ANERLAEMEEELRYAPLSFRNPMM: 1.99; ANEALAEMEEELRYAPLSFRNPMM: 2.15.

Turning to ANEILAEMEEELRYAPLSFRNPMM, the protein stability index is 2.4. Next, ANEGLAEMEEELRYAPLSFRNPMM: 2.39. In the case of ANEDLAEMEEELRYAPLSFRNPMM, the protein stability index amounted to 2.33. As for ANEMLAEMEEELRYAPLSFRNPMM, the protein stability index was determined as 2.07.

Turning to ANEQLAEMEEELRYAPLSFRNPMM, the protein stability index is 2.54.

In the case of ANEVLAEMEEELRYAPLSFRNPMM, the protein stability index is 1.9.
